Molecular target: rabbit muscle fructose-1,6-bisphosphate aldolase A D128V (rabbit)
Assay: AUC

rabbit muscle fructose-1,6-bisphosphate aldolase A D128V (enzyme)
stoichiometry N: 2

Reference: publication PMC2631105
